± gives the uncertainty stated by the source.

The nature of this data set: amyloid nucleation score (Sup35N fusion, yeast selection) (log enrichment); library NNK3; higher = more nucleation; inactive = no reads after selection. In outline:
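The nucleation score is the DiMSum log enrichment of output over input reads, centred on the mode score of non-aggregating sequences. Only sequences with 100 or more input reads were scored, using Illumina sequencing of input and output plasmid inserts. Psi-negative yeast expressing Sup35N fused to peptides of 20 random codons were induced 24 hours with 100 μM copper sulfate and grown 7 days at 30°C on medium lacking adenine and uracil.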
LRIGNVVCLKLSFSFNRYLW displayed an amyloid nucleation score of 0.352 ± 0.75.
Then LLYSLWQSHLMLTGCNM, with “inactive”.
Then FFSCFCLLMRY, with “inactive”; and SSEKLMQGFKVRLVCHFLAR, with “inactive”; and STYLMSFVLYWLWQRSLDTC, with “inactive”.
For GNNRGTVSWVERGAWALTKA, the amyloid nucleation score entry was “inactive”.
Turning to LHRLRKWRRLY, the amyloid nucleation score result is “inactive”.
Then SAYYCLCMLMGHHWGRNELY, with 0.277 ± 0.57; and GVRNWG, with “inactive”; and DAGYDVVLGSMAMVSVGTCL, with “inactive”.
For TYKRIPYELTRSGTKPLYTP the value was “inactive”.
For VCNMYFSFIRNLRGFNRNQC the value was 2.06 ± 0.062; for LAPFV, “inactive”; for STNWMVRLFYSRIEWGVNLG, “inactive”.
The substance FNKLEVRNRQEWLSGRFWDH came in with an amyloid nucleation score of -0.091 ± 0.36.
For YRFYLVSVVFKTDEVARKSE the value was “inactive”.
For HGILEWMDCVLTLFTRVGMS the value was “inactive”.
Then AVVFCVSEYYQQKRYLNSSQ, with “inactive”; and CHRRLML, with “inactive”; and CANFRV, with “inactive”.
Turning to NSCLV, the amyloid nucleation score entry is “inactive”.
For AISPNASTWTACTFYCMDSG, the amyloid nucleation score was -0.027 ± 0.26.
Then VYILFNWSRPSCHLIEHFRA, with “inactive”; and DRFSYFAIFPWYRMCYGMLE, with “inactive”; and QSPRRRMQSDIWS, with “inactive”.
In the case of NVLLCINTRYR, the amyloid nucleation score was 1.35 ± 0.077.
For LLQSLGGKESNLGK the value was “inactive”.
Then NGVMGRGLYTKSQRSYCDNN, with “inactive”; and CVSPDCMLMGAHDYGVERWL, with “inactive”; and ILKVVWYNSPEG, with 0.898 ± 0.16.
Then DYTLDANFEGCHGQLTYMND, with “inactive”; and FCRQGNILFY, with “inactive”.
Consider YKNSWLKW, for which the amyloid nucleation score result was “inactive”.
For ALSNN the value was “inactive”.
For FVCLKNFIFNRYKADGD the value was 1.17 ± 0.19; for EKSICWSNFIAWITIWPKGR, “inactive”.
For RVKASSFQISMMTDALKFWC the value was “inactive”.
For the substance KYNTCSEV, the amyloid nucleation score entry was “inactive”.
As for FHEFSTSFWSFEASLLTARL, the amyloid nucleation score result was “inactive”.
For WILYSMMQLSMMFKSMYSVT the value was “inactive”.
For the substance NGSHDRGVPAELSAFKG, the amyloid nucleation score result is “inactive”.
For RKGSVKEFRYNMSNLESVCS the value was “inactive”.
Then VRVSNYTRVLVYKDRVS, with “inactive”; and FFFVSSIRIICRV, with “inactive”; and NFVMLEKPDRTDLPGCTKQR, with “inactive”.
As for QHWWSYWMFSGKRQCVVFPV, the amyloid nucleation score entry is “inactive”.
As for FIRLYDKIRWYNDGNWVWHV, the amyloid nucleation score result is “inactive”.
For IQGLCCRHAEFKNY the value was “inactive”.
Then SRVDPLLRNWDCRFSSLLL, with 0.935 ± 0.096; and SEARCA, with “inactive”.
Then MIHAFGFLMMCLVQSYLELF, with “inactive”; and FIILKYGLYM, with 0.507 ± 0.14.
Regarding TLVPVCGGSAGLVSSRKAAT, the amyloid nucleation score result was “inactive”.
Then YMLHGTRRLRRETYGGAGRR, with “inactive”.
Then SNLMYGNISINLDRWYVAFF, with 2.51 ± 0.074; and ESRLIISKDGRRSMSKHGGP, with “inactive”.
Then FLVYLRR, with 1.17 ± 0.11; and YVYDCYAAQHVY, with -0.213 ± 0.77; and GSVSDGTILKLFHVSDRGTW, with “inactive”.
With LYLVKVD, the amyloid nucleation score entry is “inactive”.
For ISSRSGHVVMSFVCATLRNL the value was “inactive”.
Then FGVVWGSKLFCRFGSVTIYP, with “inactive”; and NMIEVI, with “inactive”.
For the substance SWYDVRSVPKSMVAMMGWRL, the amyloid nucleation score result was “inactive”.
Then LIIHIFLVWDWSSIERRSIS, with “inactive”; and SHAEVCQLSTSGPL, with “inactive”; and VIKTHMWLGL, with 0.633 ± 0.24.
LHHSVG: the amyloid nucleation score entry is “inactive”.
Then TRICMCFEFVNTSY, with “inactive”.
As to NCRYIVAPMKQLYMGIEMVL, the amyloid nucleation score result was “inactive”.
Then KPMVYFQLRRLSKKVIYCAM, with “inactive”; and SGVWFVGRVCELHSWFINLS, with “inactive”.
For SLKMK the value was “inactive”.
Consider TLMGLESVSVYFSMGFLSVY, for which the amyloid nucleation score entry was “inactive”.
Then NWMGTGGYDMDDFFE, with “inactive”; and NTLDDDFRISPDATVYSVYW, with “inactive”.
For YPGFSAGCDVWQKFNYGVMT the value was “inactive”.
For WKPCS the value was “inactive”.
For GGCHNGCGFYCRRN, the amyloid nucleation score entry was “inactive”.
Then KHYDLGFQYFSR, with “inactive”.
For GRYCWCSLLAKYEMSLPRAR the value was -0.405 ± 0.8.
Then VIRGRMMCHGIGAYVVWKSH, with “inactive”.
On to YARYNTLVLSAKPPLLYDSW, for which the amyloid nucleation score entry is “inactive”.
For the substance MEVKNSRLDSVAKYQSISFL, the amyloid nucleation score result is “inactive”.
As to AVGNCSSWGYGSSTLP, the amyloid nucleation score entry was “inactive”.
Then MWVQEYKTNNGYSLA, with “inactive”; and ATNLWR, with “inactive”; and VTLFAMPRNL, with “inactive”.
For TCLEVYGSDMFRTKIRNHDK, the amyloid nucleation score result was “inactive”.
Regarding ADSMTTGLVHGWCYFCMWFN, the amyloid nucleation score came to 2.16 ± 0.065.
Consider DMCEGYVNYCRMHRAMRHDD, for which the amyloid nucleation score result was “inactive”.
Then YTGSMAGSTYLTGKLSLDDR, with “inactive”; and SSRINWSASLNSLTVTVD, with “inactive”; and ERRKIGLKLLRLRQNNGIMA, with “inactive”.
Take RDYYGVLLNLCLHHFWLHW: the amyloid nucleation score entry was “inactive”.
VSLMMCVVPFMPVLQHMSNA showed an amyloid nucleation score of 0.793 ± 0.16.
For CVTSVVFRFRQHGYTRKGMA the value was 1.27 ± 0.15; for SRRVN, “inactive”; for LEDSLPQIPTQIVGWWFLKM, “inactive”.
Then VTGDWTGYMPLCLISVAFLS, with 1.5 ± 0.083; and WNYGTALMLRQIGSGFICIY, with “inactive”.
Then VVDGLMAVFLSHVRVAIYYV, with “inactive”; and KLYIQCIYPDLVVINCDSWN, with 2.39 ± 0.073.
With IFSNLGVVNLCRACFKYSNI, the amyloid nucleation score was found to be 2.92 ± 0.059.
For the substance LFSLIVNTRLETLEFKGQIP, the amyloid nucleation score came out at 1.02 ± 0.11.
Then LRLGRTVLYPIVLWLPYCFD, with “inactive”; and RRVFHQAFSGWSDLCIQRSG, with “inactive”.
For EKGIGYKLCMGQYAGS, the amyloid nucleation score entry is “inactive”.
Then LSGPRYLVVKSGCACRDSFR, with “inactive”; and DLGLERLAFS, with “inactive”; and MYFFSHPPSNRRE, with “inactive”.
As to IVLYRKVRPCTWAE, the amyloid nucleation score entry is “inactive”.
For YFEYRPKMHHYSLCYMGEFS the value was “inactive”; for NFEIFSRVQWDLC, “inactive”; for YDTLDTKCAVADKEIFCRIP, “inactive”.
For WVRCVRQGVYLRYVLLLCEI the value was “inactive”; for DDSNCKRKDRVVSVRMMDLT, “inactive”; for VCSHGFCACCRNNKDETWCD, -0.331 ± 0.66.
Turning to PNICGLGYYRLWSMLGITCW, the amyloid nucleation score result is “inactive”.
Regarding GMVMVLQTTRYNCHMMRELQ, the amyloid nucleation score entry was “inactive”.
YRVRLCNGSCAQVWCLIRPP: the amyloid nucleation score entry is “inactive”.
Substance SVTLGWSTRCCF registered an amyloid nucleation score of 1.27 ± 0.096.
As for HYLHRG, the amyloid nucleation score entry is “inactive”.
For PVEPI the value was “inactive”.
Then NREHMAISSCRLVKHCFFWT, with “inactive”; and GGYVDLRLMT, with “inactive”.
For NWENILGDSYLCVKWSL the value was “inactive”; for LATLLTMWRGSLRYNPLKRL, -0.354 ± 0.48; for FVLESFCRPLHSWVAGMGV, “inactive”.
SKIVNHFNDHYHFEITCQYQ returned an amyloid nucleation score of 2.88 ± 0.057.
Then AHCLTRGSVTPCPLGSRAVR, with “inactive”.
For TDSYICGNMLHKRALKSTSM the value was “inactive”.

For the origin of these results see the supplement of paper PMC12042874.
